Among the data in patent publication US20180291110A1 (Hoffmann-La Roche, published 2018) are koff values, retold here.

The labels stand for the following.
B1: 2/99 VH8/VL8 (antibody, V domains shown)
VH: QQLVETGGGLIQPGGSLRLSCAASGFSLSSYAMSWVRQAPGKGLEWIGYIWSGGSTDYASWAKGRFTISKTSTTLYLQMNSLRAEDTAVYYCARRYGTSYPDYGDANGFDPWGQGTLVTVSS
VL: AYQLTQSPSSLSASVGDRVTITCRASQSISSYLSWYQQKPGKAPKLLIYRASTLASGVPSRFSGSGSGTDFTLTISSLQPEDFATYYCQQSYSSSNVDNTFGGGTKVEIK
B2: 2/99 VH17/VL8 (antibody, V domains shown)
VH: QQLQESGPGLVKPSETLSLTCTVSGFSLSSYAMSWVRQPPGKGLEWIGYIWSGGSTDYNPSLKSRVTISKDTSKNQVSLKLSSVTAADTAVYYCARRYGTSYPDYGDANGFDPWGPGTLVTVSS
VL: B1 VL
B3: 2/99 VH23-DANG/VL8 (antibody, V domains shown)
VH: QSMQESGPGLVKPSQTLSLTCTVSGFSLSSYAMSWIRQHPGKGLEWIGYIWSGGSTDYASWAKSRVTISKTSTTVSLKLSSVTAADTAVYYCARRYGTSYPDYGDANGFDPWGQGTLVTVSS
VL: B1 VL
B4: 2/99 VH18/VL8 (antibody, V domains shown)
VH: QVQLQESGPGLVKPSQTLSLTCTVSGFSLSSYAMSWIRQHPGKGLEWIGYIWSGGSTDYAPSLKSRVTISVDTSKNQFSLKLSSVTAADTAVYYCARRYGTSYPDYGDANGFDPWGQGTLVTVSS
VL: B1 VL
B5: 2/99 VH13/VL8 (antibody, V domains shown)
VH: B4 VH with Q16E, H40P, A60N, F78V
VL: B1 VL
B6: 2/99 VH9/VL10 (antibody, V domains shown)
VH: QQLLESGGGLVQPGGSLRLSCAASGFTFSSYAMSWVRQAPGKGLEWVGYIWSGGSTDYADSVKGRFTISRDNSKNTLYLQMNSLRAEDTAVYYCAKRYGTSYPDYGDANGFDPWGQGTLVTVSS
VL: B1 VL with A1D, Y2I, L4M, G66R
B7: 2/99 VH12/VL8 (antibody, V domains shown)
VH: B4 VH with Q16E, H40P, A60N
VL: B1 VL
B8: 2/99 VH2/VL10 (antibody, V domains shown)
VH: EVQLVETGGGLIQPGGSLRLSCAASGFSLSSYAMSWVRQAPGKGLEWVGYIWSGGSTDYADSVKGRFTISRDNSKNTLYLQMNSLRAEDTAVYYCARRYGTSYPDYGDANGFDPWGQGTLVTVSS
VL: B1 VL with A1D, Y2I, L4M, G66R
B9: 2/99 VH20/VL8 (antibody, V domains shown)
VH: B2 VH with Q2S, L3M, E15Q, V36I, P39H, N59A, K70V, P116Q
VL: B1 VL
B10: 2/99 VH22/VL8 (antibody, V domains shown)
VH: B2 VH with Q2S, L3M, E15Q, P39H, N59A, P60S, S61W, L62A, K70V, P116Q
VL: B1 VL
B11: 2/99 VH5/VL10 (antibody, V domains shown)
VH: B6 VH with Q2S, L3M, L4E, S6T, V11I, T27S, F28L, K96R, Q116P
VL: B1 VL with A1D, Y2I, L4M, G66R
B12: 2/99 VH21/VL8 (antibody, V domains shown)
VH: QSMQESGPGLVKPSQTLSLTCTVSGFSLSSYAMSWIRQHPGKGLEWIGYIWSGGSTDYASWAKSRVTISVDTSKNQVSLKLSSVTAADTAVYYCARRYGTSYPDYGDANGFDPWGQGTLVTVSS
VL: B1 VL
B13: 2/99 VH11/VL10 (antibody, V domains shown)
VH: B6 VH with T27S, F28L, K96R
VL: B1 VL with A1D, Y2I, L4M, G66R
B14: 2/99 VH8/VL10 (antibody, V domains shown)
VH: B1 VH
VL: B1 VL with A1D, Y2I, L4M, G66R
B15: 2/99 VH15/VL8 (antibody, V domains shown)
VH: B2 VH with K70V, P116Q
VL: B1 VL
B16: 2/99 VH7/VL10 (antibody, V domains shown)
VH: B6 VH with L4V, S6T, V11I, T27S, F28L, V47I, D60S, S61W, V62A, K96R
VL: B1 VL with A1D, Y2I, L4M, G66R
B17: 2/99 VH6/VL10 (antibody, V domains shown)
VH: B6 VH with L4V, S6T, V11I, T27S, F28L, V47I, K96R
VL: B1 VL with A1D, Y2I, L4M, G66R
B18: 2/99 VH11/VL8 (antibody, V domains shown)
VH: B6 VH with T27S, F28L, K96R
VL: B1 VL
B19: 2/99 VH1/VL10 (antibody, V domains shown)
VH: B6 VH with Q1V, L4V, S6T, V11I, T27S, F28L, K96R
VL: B1 VL with A1D, Y2I, L4M, G66R
B20: 2/99 VH19/VL8 (antibody, V domains shown)
VH: B12 VH with S60P, W61S, A62L, V77F
VL: B1 VL
B21: 2/99 VH9/VL8 (antibody, V domains shown)
VH: B6 VH
VL: B1 VL
B22: 2/99 VH16/VL8 (antibody, V domains shown)
VH: B2 VH with K70V
VL: B1 VL
B23: 2/99 VH0(rb)/VL9-NYA (antibody, V domains shown)
VH: QSMEESGGRLVTPGTPLTLTCTVSGFSLSSYAMSWVRQAPGKGLEWIGYIWSGGSTDYASWAKGRFTISKTSTTVDLKITSPTTEDTATYFCARRYGTSYPDYGDANGFDPWGPGTLVTVSS
VL: AIQLTQSPSSLSASVGDRVTITCRASQSISSYLAWYQQKPGKAPKLLIYRASTLASGVPSRFSGSGSGTDFTLTISSLQPEDFATYYCQQNYASSNVDNTFGGGTKVEI

Residue numbers refer to the chain shown, from its start.

T1 sequence (P02786 89-760 limits assumed): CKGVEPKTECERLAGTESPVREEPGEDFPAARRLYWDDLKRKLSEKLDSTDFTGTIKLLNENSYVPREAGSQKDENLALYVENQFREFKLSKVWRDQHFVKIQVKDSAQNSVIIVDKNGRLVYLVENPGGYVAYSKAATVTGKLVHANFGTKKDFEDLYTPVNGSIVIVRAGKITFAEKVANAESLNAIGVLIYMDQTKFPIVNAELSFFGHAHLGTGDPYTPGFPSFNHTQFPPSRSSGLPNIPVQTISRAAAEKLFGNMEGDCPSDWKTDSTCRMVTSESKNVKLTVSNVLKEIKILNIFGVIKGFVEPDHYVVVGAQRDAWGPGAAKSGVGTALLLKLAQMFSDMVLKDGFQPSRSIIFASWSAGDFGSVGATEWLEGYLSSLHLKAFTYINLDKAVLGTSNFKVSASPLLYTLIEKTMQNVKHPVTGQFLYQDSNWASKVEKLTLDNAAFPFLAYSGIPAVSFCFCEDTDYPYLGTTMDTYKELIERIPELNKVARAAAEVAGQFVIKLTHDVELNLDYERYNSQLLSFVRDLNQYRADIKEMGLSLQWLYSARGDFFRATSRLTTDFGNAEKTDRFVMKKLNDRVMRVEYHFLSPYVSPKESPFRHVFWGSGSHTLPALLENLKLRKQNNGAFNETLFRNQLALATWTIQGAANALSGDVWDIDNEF

This test addresses T1, human transferrin receptor (recombinant, for surface plasmon resonance) (human, UniProt P02786 89-760).
T1 construct: also called huTfR; human transferrin receptor-biotinylated
Kind of test: SPR 25C.
Regarding B1, the koff is 0.00116 s⁻¹.

As to B2, the dissociation rate constant (koff) turned out to be 0.00111 s⁻¹.

On to B3, for which the koff was 0.000941 s⁻¹.

In the case of B4, the off-rate constant (koff) was found to be 0.00677 s⁻¹.

In the case of B5, the koff came out at 0.00247 s⁻¹.

Regarding B6, the off-rate (koff) is 0.00719 s⁻¹.

Take B7: the koff amounted to 0.00531 s⁻¹.

Regarding B8, the koff was found to be 0.00649 s⁻¹.

On to B9, for which the koff turned out to be 0.00658 s⁻¹.

On to B10, for which the koff was 0.00165 s⁻¹.

On to B11, for which the koff was found to be 0.00653 s⁻¹.

For the molecule B12, the koff stood at 0.00174 s⁻¹.

In the case of B13, the dissociation rate constant (koff) was 0.00716 s⁻¹.

As for B14, the koff amounted to 0.00173 s⁻¹.

Consider B15, for which the koff amounted to 0.00209 s⁻¹.

For B16, the koff worked out at 0.00264 s⁻¹.

B17: the koff amounted to 0.00455 s⁻¹.

For the molecule B18, the koff turned out to be 0.00552 s⁻¹.

With B19, the koff was determined as 0.00677 s⁻¹.

For B20, the koff is 0.00671 s⁻¹.

As for B21, the koff came out at 0.00523 s⁻¹.

As to B22, the off-rate (koff) worked out at 0.00197 s⁻¹.

In the case of B23, the koff worked out at 0.00141 s⁻¹.
